Publication PMC12524713
pKd: −log10 of the molar value.

How the values were obtained:
[1] = target: catalytic domain of matrix metalloproteinase-14 (MMP14) (human) (UniProt P50281); assay: SPR; cat-MMP14 amine-coupled on a CM5 chip (Biacore T200); 3CL^pro (0.062-20 uM) or PL^pro (0.041-10 uM) flowed in PBSP (20 mM phosphate pH 7.4, 137 mM NaCl, 2.7 mM KCl, 0.05% P20), 30 uL/min, 180 s association, 300 s dissociation, 25 C; 1:1 Langmuir kinetic fit, KD = kd/ka
[2] = target: SARS-CoV-2 3-chymotrypsin-like protease (3CL^pro) (SARS-CoV-2); assay: mass photometry; TwoMP mass photometer, proteins diluted in PBS to 10 nM, room temperature, 60 s; the monomer is too small to resolve

## SARS-CoV-2 3-chymotrypsin-like protease (3CL^pro) (enzyme)
[1]
  pKd: 5.49
  koff: 0.0012 s⁻¹
  kon: 386 M⁻¹ s⁻¹
[2]
  stoichiometry N: 2
